Results on 3 substances are retold here after patent publication US20220160939A1, “SELF-ASSEMBLING PEPTIDES AS BRONCHIAL OBSTRUCTION AGENTS” (3-D MATRIX, LTD., priority 2014, published 2022).

Common to all, as to format: physicochemical
Data set [1] in a line: Rheological properties of pH adjusted peptide solutions. The following applies: for rheological properties of solutions at pH 3.4: pH adjusted vs not adjusted, KLD12 1%, IEIK13 1%, PuraMatrix 1% and 2.5%. The procedure:
Based on the visual observation of the effect of pH level on the properties of the peptide solutions, the effect on the rheological properties of the peptide solutions after adjusting their pH level to 3.4 (PuraMatrix® (SEQ ID NO:1) and KLD12 (SEQ ID NO:3)) or 3.7 (IEIK13 (SEQ ID NO:2)) was evaluated. If the pH levels of peptide solutions are higher than 3.5 (PuraMatrix® (SEQ ID NO:1) and KLD12 (SEQ ID NO:3)) or 3.7 (IEIK13 (SEQ ID NO:2)), the peptide solution began phase separation becoming cloudy. The rheological properties of PuraMatrix® (SEQ ID NO:1), KLD12 (SEQ ID NO:3) and IEIK13 (SEQ ID NO:2) solutions were higher at pH 3.4. The results are shown in FIG. 2 for KLD12 (SEQ ID NO:3) 1%, FIG. 3 for IEIK13 (SEQ ID NO:2) 1%, and FIGS. 4-5 for PuraMatrix® (SEQ ID NO:1) 1% and 2.5%, respectively. Stress sweep tests were performed at 10 rad/s. Frequency sweep tests were performed at 1 Pa.
Based on the results of the effect on the rheological properties of the peptide solutions after adjusting their pH level to 3.4 (PuraMatrix® (SEQ ID NO:1) and KLD12 (SEQ ID NO:3)) or 3.7 (IEIK13 (SEQ ID NO:2)), the effect on the rheological properties of the peptide solutions at various pH levels was evaluated. […] The rheological properties of peptides were evaluated at various concentrations using a rheometer (DHR-1, TA Instruments) with 20 mm plates. The results are shown in FIG. 6A for PuraMatrix® (SEQ ID NO:1) 2.5% solution and FIG. 6B for IEIK13 (SEQ ID NO:2) 1.5% solution, respectively. Frequency sweep tests were performed from 1 rad/sec to 10 rad/sec at 1 Pa and the storage modulus at 1 rad/sec was selected for data.

Data set [2] is described as follows: Rheological properties of peptide solutions at adjusted salt ionic strength. The following applies: for ionic strength up to which the rheological property of 1% solutions increases (decreases above): storage modulus at 1 rad/sec; for rheological property after adjusting ionic strength level with NaCl: NaCl to 0.7 M (PuraMatrix), 0.2 M (KLD12) or 0.02 M (IEIK13); for ionic strength up to which the rheological property of 1% solutions increases (decreases above) / rheological property after adjusting ionic strength level with NaCl: 1% solutions. The procedure: Based on the visual observation of the effect of salt ionic strength on the properties of the peptide solutions, the effect on the rheological properties of the peptide solutions after adjusting their ionic strength level with NaCl to 0.7 M (PuraMatrix® (SEQ ID NO:1)), 0.2 M (KLD12 (SEQ ID NO:3)) or 0.02 M (IEIK13 (SEQ ID NO:2)), which is closely below the critical ionic strength at which each peptide becomes cloudy, was evaluated. If the ionic strength levels with NaCl of peptide solutions are higher than 0.9 M (PuraMatrix® (SEQ ID NO:1)), 0.3 M (KLD12 (SEQ ID NO:3)) or 0.03 M (IEIK13 (SEQ ID NO:2)), the peptide solutions begin phase separation becoming cloudy and weak. The rheological property of PuraMatrix® (SEQ ID NO:1), KLD12 (SEQ ID NO:3) and IEIK13 (SEQ ID NO:2) solutions was higher after adjusting their ionic strength level with NaCl to 0.7 M (PuraMatrix® (SEQ ID NO:1)), 0.2 M (KLD12 (SEQ ID NO:3)) or 0.02 M (IEIK13 (SEQ ID NO:2)). The results are shown in FIG. 10 for KLD12 (SEQ ID NO:3) 1%, FIG. 11 for IEIK13 (SEQ ID NO:2) 1%, and FIG. 12 for PuraMatrix® (SEQ ID NO:1) 1%, respectively. Frequency sweep tests were performed from 1 rad/s to 10 rad/s at 1 Pa.
Based on the results of the effect on the rheological properties of the peptide solutions after adjusting their ionic strength level with NaCl to 0.7 M (PuraMatrix® (SEQ ID NO:1)), 0.2 M (KLD12 (SEQ ID NO:3)) or 0.02 M (IEIK13 (SEQ ID NO:2)), the effect on the rheological properties of the peptide solution at various salt ionic strengths was evaluated. […] The results are shown in FIG. 13 for PuraMatrix® (SEQ ID NO:1) 1% solutions and in FIG. 14 for IEIK13 (SEQ ID NO:2) 1% solutions. Frequency sweep tests were performed from 1 rad/sec to 10 rad/sec at 1 Pa and the storage modulus at 1 rad/sec was selected for data.
Based on the results of the effect on the rheological properties of the peptide solutions and hydrogels after adjusting their ionic strength levels with NaCl, the effect of various salts (KCl, MgCl2, and CaCl2) was also evaluated. The rheological property of PuraMatrix® (SEQ ID NO:1) solutions increases with ionic strength adjustment at 0.15 M of all the salts. Increases of the rheological property of PuraMatrix® (SEQ ID NO:1) solutions with various salts were not predominantly different. However, increases of the rheological property of PuraMatrix® (SEQ ID NO:1) solutions may vary depending on the salting out constant, K of each salt. Constant K is a constant in Cohen's equation: log S=B−KI, where S is solubility, B is idealized solubility, K is salting out constant, and I is ionic strength. With a higher value of constant K and ionic strength of salts, solubility of the peptide may decrease resulting in strong peptide self-assembly with increased hydrophobic effect and higher rheological properties of the peptide solution. The constant K of NaCl may be higher than the other salts. […] The results are shown in FIG. 17 for PuraMatrix® (SEQ ID NO:1) 1% solution before DMEM treatment, and in FIG. 18 for PuraMatrix® (SEQ ID NO:1) 1% hydrogels after DMEM treatment for 10 min Frequency sweep tests were performed from 1 rad/sec to 10 rad/sec at 1 Pa and the storage modulus at 1 rad/sec was selected for data.

A short description of data set [3]: Gelation of peptide solutions after saline buffer treatment, time sweep test. The following applies: saline buffer (0.15 M of NaCl), no pH change; IEIK13 1.5%, KLD12 1.5%, PuraMatrix 2.5%. The procedure: The effect of salt ionic strength level surrounding peptides in solution on the properties of peptide solutions was evaluated to identify the possibility of peptide gelation when the peptide solution is placed into the environment where salt ionic strength level is high. […] Without pH effect, the effect of saline treatment on gelation of peptide solutions were evaluated. […] This is because IEIK13 (SEQ ID NO:2) is much more sensitive to salt ionic strength levels. Fast gelation of IEIK13 (SEQ ID NO:2) at the salt ionic strength level similar to body fluid isotonic salt level may generally improve its function and gelation speed for various clinical applications. The results are shown in FIG. 19 for IEIK13 (SEQ ID NO:2), KLD12 (SEQ ID NO:3) and PuraMatrix® (SEQ ID NO:1) solutions. Time sweep tests were performed at 1 rad/sec and at 1 Pa with 20 mm plates and 500 μm gap distance. […]

Where no end group is shown, it is not given here.

Consider “Arg-Ala-Asp-Ala-Arg-Ala-Asp-Ala-Arg-Ala-Asp-Ala-Arg-Ala-Asp-Ala [PuraMatrix ®]”, for which the “rheological properties of solutions at pH 3.4” value (“rheological properties” for short) in data set [1] is “higher”. For the same substance, in data set [2] (0.15 M ionic strength of all the salts (NaCl, KCl, MgCl2, CaCl2), 1% solution), the “rheological property of solutions with ionic strength adjustment” value is “increases”. Further, the “rheological property of solutions with NaCl versus KCl and CaCl2” value in data set [2] (0.15 M ionic strength, 1% solution) is recorded as “slightly higher”. Further, in data set [2], the “ionic strength up to which the rheological property of 1% solutions increases (decreases above)” value was “up to 0.7 M”; the “ionic strength level with NaCl above which solutions begin phase separation becoming cloudy and weak” value is listed as “higher than 0.9 M”; the “rheological property after adjusting ionic strength level with NaCl” value is listed as “higher”. The “gelation after saline buffer treatment” value in data set [3] is given as “no or negligible gelation”.

Take KLDLKLDLKLDL [KLD12]: the “rheological properties” value in data set [1] is “higher”. Besides, in data set [2], the “ionic strength level with NaCl above which solutions begin phase separation becoming cloudy and weak” value is greater than 0.3 M; the “rheological property after adjusting ionic strength level with NaCl” value is reported as “higher”. In data set [3], the “gelation after saline buffer treatment” value is given as “no or negligible gelation”.

Turning to “Ile-Glu-Ile-Lys-Ile-Glu-Ile-Lys-Ile-Glu-Ile-Lys-Ile [IEIK13]”, in data set [1], the “pH level above which the peptide solution began phase separation becoming cloudy” value is listed as greater than 3.7 and the “rheological properties” value is recorded as “higher”. Besides, in data set [2], the “ionic strength up to which the rheological property of 1% solutions increases (decreases above)” value is listed as “up to 0.03 M”; the “ionic strength level with NaCl above which solutions begin phase separation becoming cloudy and weak” value is greater than 0.03 M; the “rheological property after adjusting ionic strength level with NaCl” value is given as “higher”. In addition, the “gelation after saline buffer treatment” value in data set [3] is recorded as “fast gelation”.
